In the nanobody polyreactivity screen of Harvey et al. (2022):

Assay: yeast display, Sf9 membrane polyspecificity reagent, FACS + sequencing; frameworks hold sequencing errors
Summary of the method: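 A synthetic nanobody library was expressed on Saccharomyces cerevisiae BJ5465 by galactose induction for 36–48 hours. The library was stained for 1 hour at 4 °C with 10% biotinylated, detergent-solubilized Sf9 membrane reagent and enriched with streptavidin microbeads before FACS. Low and high (top ~1%) gates were set on anti-HA fluorescence for expression and streptavidin fluorescence for reagent binding, and each polyreactivity label reflects the gate of origin.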

| Sequence | polyreactivity (PSR sort gate) |
| --- | --- |
| QVQLVESGGGLVQAGGSLRLSCAASGRTFGFYAMGWYRQAPGKERELVAAIRGSIGNTYYADSVKGRFTISRDNAKNTVYLQMNSLKPEDTAVYYCAKAIRYPSAKFYWGQGTQVTVSS | high polyreactivity |
| QVQLVESGGGLVQAGGSLRLSCAASGRTFGFYAMGWYRQAPGKERELVATISSSGGSTYYADSVKGRFTISRDNAKNTVYLQMNSLKPEDTAVYYCAADYLDSTYGYVYGWDDYWGQGTQVTVSS | low polyreactivity |
| QVQLVESGGGLVQAGGSLRLSCAASGRTFGFYVMGWYRQAPGKERELVAAITPGGNTNYADSVKGRFTISRDNAKNSVYLQMNRLKPEDTAVYYCAASPGTIASYEGDFWGQGTQVTVSS | low polyreactivity |
| QVQLVESGGGLVQAGGSLRLSCAASGRTFGGNAMGWYRQAPGKERELVAAISSGGSTNYADSVKGRFTISRDNAKNTVYLQMNSLKPEDTAVYYCAAGWYWWARYDYWGQGTQVTVSS | low polyreactivity |
| QVQLVESGGGLVQAGGSLRLSCAASGRTFGGNAMGWYRQAPGKERELVAAISSGGSTNYADSVKGRFTISRDNANNTVYLQMNSLKPEDTAVYYCAARGPYWGQGTQVTVSS | low polyreactivity |
| QVQLVESGGGLVQAGGSLRLSCAASGRTFGGNAMGWYRQAPGKERELVASISWSGGTTYYADSVKGRFTISRDNAKNTVYFQMNSLKPEDTAVYYCNTVNSQQYSSSHYDSWGQGTQVTVSS | high polyreactivity |
| QVQLVESGGGLVQAGGSLRLSCAASGRTFGGNTMGWYREAPGKERELVAAISRRGGSTYYADSVKGRFTISRDNAKNTVYLQMNSLKPEDTAVYYCNKDGPSYSSYDYWGQGTQVTVSS | low polyreactivity |
| QVQLVESGGGLVQAGGSLRLSCAASGRTFGGNTMGWYRQAPGKERELVAAISFSGGSTYYADSVKGRFTISRDNAKNTVYLQMNSLKPEDTAVYYCAREDYSHSFLTYDYWGQGTQVTVSS | low polyreactivity |
| QVQLVESGGGLVQAGGSLRLSCAASGRTFGGYALGWYRQAPGKERELVATISYSSGSTYYADSVKGRFTISRDNAKNTVYLQMNSLKPEETAVYYCAARIRYFYRYDYWGQGTQVTVTS | high polyreactivity |
| QVQLVESGGGLVQAGGSLRLSCAASGRTFGGYAMGWYRQAPGKERELVAAITSDTGTNYADSVKGRFTISRDNAKNTVYLQMNSLKPEDTAVYYCAADRFYEYDYWGQGTQVTVSS | low polyreactivity |
| QVQLVESGGGLVQAGGSLRLSCAASGRTFGGYTMGWYRQAPGKEREFVAAITWSTGGSTYYADSVKGRFTISRDNAKNTVYLQMNSLKPEDTAVYYCAKDLYLHTYYAYPYRFGSGYYWGLGTQVTVSS | low polyreactivity |
| QVQLVESGGGLVQAGGSLRLSCAASGRTFGGYTMGWYRQAPGKERELVAAISWGGGSTYYADSVKGRFTISRDNAKNTVYLQMNSLKPEDTAVYYCAAVSPNLRLFGYRYRYEYWGQGTQVTVSS | high polyreactivity |
| QVQLVESGGGLVQAGGSLRLSCAASGRTFGHNAMGWYRQAPGKEREFVAAITYSGVRTFYADSVKGRFTISRDNAKNTVYLQMNSLKPEDTAVFYCAAYYPSQDYSGFWSDTYEYWGQGTQVTVSS | low polyreactivity |
| QVQLVESGGGLVQAGGSLRLSCAASGRTFGINAMGWYRPAPGKERELVAAIRTGGSTYYADSVKGRFTISRDNAKNTVYLQMNSLKPEDTAVFYCAAVLYHNRKTEYTYGYWGQGTQVTVSS | high polyreactivity |
| QVQLVESGGGLVQAGGSLRLSCAASGRTFGINAMRWSRQATGKERELVAAITGRSGRTYYADSVKGRFTISRDNAKYTVYLQMNSLQPEDTAVYYCAARWPVYSRRYGYWGQGTQVTVSS | high polyreactivity |
| QVQLVESGGGLVQAGGSLRLSCAASGRTFGIYAMGWYRPAPGKERELVATISWRGGSTYYADSVKGRFTISRDNAKNTVYLQMNSLKPEDTAVYYCAAGYYPYWGQGTQVTVSS | low polyreactivity |
| QVQLVESGGGLVQAGGSLRLSCAASGRTFGIYAMGWYRQAPGKERELVAAITWSGDSTYYADSVKGRFTISRDNAKNTVYLQMNSLKPEDTAVYYCAADYFGVTSVRYDYWGQGTQVTVSS | low polyreactivity |
| QVQLVESGGGLVQAGGSLRLSCAASGRTFGIYAMGWYRQAPGKEREMVAAISRGGNTYADSVKGRFTISRDNAKNTVYLQMNSLKQEDTAVYYCAAYSSYYVHRFQHYDYWGQGTQVTVSS | high polyreactivity |
| QVQLVESGGGLVQAGGSLRLSCAASGRTFGKNAMGWYRQAPGKEREFVAAITSRGGSTYYADSVKGRFTISRDNAKNTVYLQMNSLKAEDTAVYYCNREYIRPSQRTEHYYWGQGTQVTVSS | low polyreactivity |
| QVQLVESGGGLVQAGGSLRLSCAASGRTFGKNAMGWYRQAPGKEREFVAAITSRGGSTYYADSVKGRFTISRDNAKNTVYLQMNSLKPEDTAVYYCAADYYQWSTFLGVYEYDYWGQGTQVTVSS | low polyreactivity |
| QVQLVESGGGLVQAGGSLRLSCAASGRTFGKYAMGWYRQAPGKESELVAAITNSGGSTYYADSVKGRFTISRDNAKNTVYLQMNSLKPEDTAVYYCNRLGYRGPSKLNHMGYWGQGTQVTVSS | high polyreactivity |
| QVQLVESGGGLVQAGGSLRLSCAASGRTFGLNAMGWYRQAPGKERELVAAISSSGGSTYYADSVKGRFTISRDNAKNTVYLQMNSLKPEDTAVYYCAKVLYRYGTAYYYWGQGTQVTVSS | high polyreactivity |

| Sequence | polyreactivity (PSR sort gate) |
| --- | --- |
| QVQLVESGGGLVQAGGSLRLSCAASGRTFGLYAMGWYRQAPGKERELVAAIDQSTGSTYYADSVKGRFTISRDNSKNTVYLQMNSLKQEDTAVYYCAAEEASTVRYYWYDYWGLGTQVTVSS | high polyreactivity |
| QVQLVESGGGLVQAGGSLRLSCAASGRTFGLYAMGWYRQAPGKERELVAAISWGGGRTYYADSVKGRFTISRDNAKNTVYLQMNSLKPEDTAVYYCNAVYSPRYYVGGYDYWGQGTQVTVSS | high polyreactivity |
| QVQLVESGGGLVQAGGSLRLSCAASGRTFGLYAMRWYIQAPGKERELVAAIRGSAGSTYYADSVKGRFTISRDNAKNTVYLQMNSLKPEDTAVYYCATGGYPSLWYGYGYWGQGTQVTVSS | low polyreactivity |
| QVQLVESGGGLVQAGGSLRLSCAASGRTFGLYDMGWYRQAPGKERELVAGITRRGGRTYYADSVKGRFTISRDNAKNTVYLQMNSLKPEDTAVYYGAAGTLYLRHAQSPFDYWGQGTQVTVSS | high polyreactivity |
| QVQLVESGGGLVQAGGSLRLSCAASGRTFGNNAMGWYRQAPGKERELVAAITARGSRTYYADSVKGRFTISRDNAKNTVYLQMNSLKPEDTAVYYCNAGVRRYYRSLHSIGIYYYWGQGTQVTVSS | high polyreactivity |
| QVQLVESGGGLVQAGGSLRLSCAASGRTFGNYAMGWYRQAPGTERELVASITYTVGNTYYADSVKGRFTISRDNAKNTVYIQMNSLKPEDTAVYYCAADGFYLQFYHYDYWGQGTQVTVSS | low polyreactivity |
| QVQLVESGGGLVQAGGSLRLSCAASGRTFGPYAMGWYRQAPGKEREFVAAISYSGGSTYYADSVKGRFTISRDIAKNTVYLQMNSLKPEDTAVYYCAARLPSDHRPVVRGGYEMGYWGQGTQVTVSS | low polyreactivity |
| QVQLVESGGGLVQAGGSLRLSCAASGRTFGPYAMGWYRQAPGKERELVAAISSSGSTTYYADSVKGRFTISRDNAKNTVYLQMNSLKPEDTAVYYCAKPSSRDSPYDYWGQGTQVTVSS | low polyreactivity |
| QVQLVESGGGLVQAGGSLRLSCAASGRTFGPYAMGWYRQAPGKERELVAVISGRGTSTYYADSVKGRFTISRDNAKNTVYLQMNSMKPEDTAVYYCNADYGSWYWGFDYWGQGTQVTVSS | low polyreactivity |
| QVQLVESGGGLVQAGGSLRLSCAASGRTFGPYTMGWYRQAPGKEREFVAAINSSGSRTYYADSVKGRFTISRDNAKNTVYLKINSLKPEDTGVYYCAAEAKWYYSWSYPYEGDYWGQGTQVTVSS | low polyreactivity |
| QVQLVESGGGLVQAGGSLRLSCAASGRTFGQNALGWYRQAPGKERELVASIRSGGITDYADSVKGRFTISRDNAKNTVYLQMNSLKPEDTAVYYCNAEGVWWSTRYDSWGQGTQVTVSS | low polyreactivity |
| QVQLVESGGGLVQAGGSLRLSCAASGRTFGQNAMGWYRQAPGKERELVASIRSGGITDYADSVKGRFTISRDNAKNTVYLQMNSLKPDDTAVYYCNAEGVWWSTRYDSWGQGTQVTVSS | low polyreactivity |
| QVQLVESGGGLVQAGGSLRLSCAASGRTFGQYVMGWYRKAPGKERELVAAIRSGGSTYYADSVKGRFTISRDNAKNTVYLQMNSLKPEDTAVYYCAKETYYVTDNFGQVGGEMDYWGQGTQVTVSS | low polyreactivity |
| QVQLVESGGGLVQAGGSLRLSCAASGRTFGRNAMGWYRQAPGERELVAVISRGGSTYYADSVKGRFTISRDNAKNTVYLQMNSLKPEDTAVYYCNADTVYTRTAPYDYWGQGTQVTVSS | low polyreactivity |
| QVQLVESGGGLVQAGGSLRLSCAASGRTFGRNAMGWYRQAPGKERELVAAITWSGGSTYYADSVKGRFTISRDNAKNTVYLQMNSLKPEDTAVYYCAADRSRWGQGTQVTVSS | high polyreactivity |
| QVQLVESGGGLVQAGGSLRLSCAASGRTFGRNAMGWYRQAPGKERELVADISLRGGRTYYADSVKGRFTISRDNAKNTVYLQMNSLKPEDTAVYYCAAVQPVGLYPRTKYYYWGQGTQVTVSS | high polyreactivity |
| QVQLVESGGGLVQAGGSLRLSCAASGRTFGRNTMGWYRQAPGKERELVAGISRSAGRTYYADSVKGRFTISRDNAKNTVYLQMNSLKPEDTAVYYCAARYQGNYRTDKYDYWGQGTQVTVSS | high polyreactivity |
| QVQLVESGGGLVQAGGSLRLSCAASGRTFGRYAKGWYRQAPGKERELVATITSGGSTNYADSVKGRFTISRDNAKNTVYLQMNSLKPEDTAVYYCAAEFSPSRWAYSEGALRYNYWGQGTQVTVSS | low polyreactivity |
| QVQLVESGGGLVQAGGSLRLSCAASGRTFGRYALGWDRQAPGKDRELVAAISYSTDSTYYADSVKGRFTISRDNAKNTVYLQMNSLKPEDTAVYYCATDSVNVGSYVGDKHDYWGQGTQVTLSS | low polyreactivity |
| QVQLVESGGGLVQAGGSLRLSCAASGRTFGRYAMGWYRQAPGKERELVATITSGGSTNYADSVKGRFTISRDNAKNTVYLQMNSLKPEDTAVYYCAADVKRDRVWGGDYWGQGTQVTVSS | low polyreactivity |
| QVQLVESGGGLVQAGGSLRLSCAASGRTFGRYAMGWYRQAPGKERELVATITSGGSTNYADSVKGRFTISRDNAKNTVYLQMNSLKPEDTAVYYCAAEFSPSRWAYSEGALRYHYWGQGTQVTVSS | low polyreactivity |
